Source: patent US20260226191A1 (SHANDONG SIMCERE BIOPHARMACEUTICAL, published 2026)

T1: Cyno MUC17 ECD3577-mFc (mFc-tagged cynomolgus monkey MUC17 protein extracellular region fusion protein) (cynomolgus monkey)
T1 construct: also called monkey MUC17-mFc protein; Monkey MUC17-ECD3577-mFc protein
T1 chain: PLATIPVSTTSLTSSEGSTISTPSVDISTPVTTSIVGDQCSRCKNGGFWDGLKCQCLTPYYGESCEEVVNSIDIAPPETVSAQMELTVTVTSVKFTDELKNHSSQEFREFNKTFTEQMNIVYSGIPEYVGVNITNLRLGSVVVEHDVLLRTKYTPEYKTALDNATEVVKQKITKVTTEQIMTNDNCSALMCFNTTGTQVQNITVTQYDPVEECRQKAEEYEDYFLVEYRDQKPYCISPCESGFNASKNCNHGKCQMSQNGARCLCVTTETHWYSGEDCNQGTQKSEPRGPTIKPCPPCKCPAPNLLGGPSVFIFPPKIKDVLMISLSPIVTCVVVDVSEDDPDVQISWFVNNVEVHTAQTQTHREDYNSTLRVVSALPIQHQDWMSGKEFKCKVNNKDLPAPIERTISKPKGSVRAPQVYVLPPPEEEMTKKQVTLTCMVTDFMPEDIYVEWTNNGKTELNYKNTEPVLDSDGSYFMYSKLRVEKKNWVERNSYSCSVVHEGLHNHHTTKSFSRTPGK


Experiments:
[1] = molecular target: T2, human MUC17 on endogenous tumor cells (NUGC4, SNU16, ASPC1) (human); assay: cell-based or functional assay
[2] = molecular target: T3, human MUC17 fragment on FlpinCHO-huMUC17-D1 cells (human); assay: FACS on FlpinCHO-huMUC17-D1 cells, MFI
T3 construct: On cells; also called cells overexpressing human MUC17

[3] = molecular target: T4, monkey MUC17 on FlpinCHO-cynoMUC17-D1 cells (monkey); assay: FACS on FlpinCHO-cynoMUC17-D1 cells, MFI
T4 construct: On cells; also called recombinant cells overexpressing monkey MUC17

[4] = molecular target: T5, Human CD3e-His protein (Sino Biological, CAT #10977-H08H) (human, UniProt P07766 23-126); assay: ELISA, human CD3e-His coated on the plate, OD450
T5 construct: Bought reagent; also called human CD3e protein

[5] = molecular target: T6, Human MUC17 ECD4131-his (His-tagged human MUC17 protein extracellular region fusion protein) (human, UniProt Q685J3 4131-4393); assay: ELISA, human MUC17-his coated on the plate, OD450
T6 construct: also called human MUC17-his protein; Human MUC17-ECD(4131-4393)-His protein

[6] = molecular target: T2, human MUC17 on endogenous tumor cells …; assay: FACS on NUGC4 cells (endogenous human MUC17), MFI
[7] = molecular target: T2, human MUC17 on endogenous tumor cells …; assay: FACS on SNU16 cells (endogenous human MUC17), MFI
[8] = molecular target: T2, human MUC17 on endogenous tumor cells …; assay: FACS on AspC-1 cells (endogenous human MUC17), MFI
[9] = molecular target: T1, Cyno MUC17 ECD3577-mFc (mFc-tagged …); assay: ELISA, cynomolgus MUC17-mFc coated on the plate, OD450
[10] = molecular target: T6, Human MUC17 ECD4131-his (His-tagged …); assay: SPR (Biacore 8K), antibody captured on Protein A, antigen injected, 25 C, 1:1 model
[11] = molecular target: T1, Cyno MUC17 ECD3577-mFc (mFc-tagged …); assay: as above

T5 sequence (P07766 23-126 limits assumed): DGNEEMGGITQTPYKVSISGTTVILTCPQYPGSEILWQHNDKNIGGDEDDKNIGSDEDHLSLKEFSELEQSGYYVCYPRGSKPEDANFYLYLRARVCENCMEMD

| Binder | PBMC-mediated in vitro tumor cell killing EC50, ASPC-1 [1] [pM] | PBMC-mediated in vitro tumor cell killing EC50, NUGC4 [1] [pM] | PBMC-mediated in vitro tumor cell killing EC50, SNU16 [1] [pM] | EC50 (read off the curve) [2] [pM] | EC50 (read off the curve) [3] [pM] | binding result [4] | EC50 (read off the curve) [5] [pM] | EC50 (read off the curve) [6] [pM] | EC50 (read off the curve) [7] [pM] | EC50 (read off the curve) [8] [pM] | EC50 (read off the curve) [9] [pM] | Kd [10] [pM] | koff [10] [s⁻¹] | kon [10] [M⁻¹ s⁻¹] | Kd [11] [pM] | koff [11] [s⁻¹] | kon [11] [M⁻¹ s⁻¹] | binding result [5] |
| --- | --- | --- | --- | --- | --- | --- | --- | --- | --- | --- | --- | --- | --- | --- | --- | --- | --- | --- |
| Bis 57 (bispecific antibody, human IgG1, kappa, Three-chain asymmetric MUC17xCD3 bispecific) heavy: EVQLVESGGGVVQPGRSLRLSCAASGFTFTDYYMSWVRQAPGKGLEWVAMSRNKAKGHTIEYSSSVKGRFTISRDNSKNTLYLQMNSLRAEDTAVYYCARDTYESYDGYFDVWGQGTTVTVSSASTKGPSVFPLAPSSKSTSGGTAALGCLVKDYFPEPVTVSWNSGALTSGVHTFPAVLQSSGLYSLSSVVTVPSSSLGTQTYICNVNHKPSNTKVDKKVEPKSCDKTHTCPPCPAPEAAGAPSVFLFPPKPKDTLMISRTPEVTCVVVDVSHEDPEVKFNWYVDGVEVHNAKTKPREEQYNSTYRVVSVLTVLHQDWLNGKEYKCKVSNKALPAPIEKTISKAKGQPREPQVYTLPPSREEMTKNQVSLWCLVKGFYPSDIAVEWESNGQPENNYKTTPPVLDSDGSFFLYSKLTVDKSRWQQGNVFSCSVMHEALHNHYTQKSLSLSPG light: not shown EVQLVESGGGLVQPGRSLRLSCAASGDITRRCMGWFRQAPGKEREGVAGISEDGITIYADSVKGRFTISKDNAKNSLYLQMNSLRAEDTALYSCAASILNRVGCRQLSYEYIYRGQGTMVTVSSGGGDKTHTCPPCPAPEAAGAPSVFLFPPKPKDTLMISRTPEVTCVVVDVSHEDPEVKFNWYVDGVEVHNAKTKPREEQYNSTYRVVSVLTVLHQDWLNGKEYKCKVSNKALPAPIEKTISKAKGQPREPQVYTLPPSREEMTKNQVSLSCAVKGFYPSDIAVEWESNGQPENNYKTTPPVLDSDGSFFLVSKLTVDKSRWQQGNVFSCSVMHEALHNHYTQKSLSLSPG | 11 | 24 | 17 | ~2000 | ~8000 | binds | ~50 | ~1000 | ~300 | ~300 | ~40 | 289 | 4.86e-05 | 168000 | 4710 | 0.00016 | 33900 | – |
| Bis 59 (bispecific antibody, human IgG1, kappa, Three-chain asymmetric MUC17xCD3 bispecific) heavy: EVQLVESGGGVVQPGRSLRLSCAASGFTFTDYYMSWVRQAPGKGLEWVAMSRNKAKGHTIEYSSSVKGRFTISRDNSKNTLYLQMNSLRAEDTAVYYCARDTYESYDGYFDVWGQGTTVTVSSASTKGPSVFPLAPSSKSTSGGTAALGCLVKDYFPEPVTVSWNSGALTSGVHTFPAVLQSSGLYSLSSVVTVPSSSLGTQTYICNVNHKPSNTKVDKKVEPKSCDKTHTCPPCPAPEAAGAPSVFLFPPKPKDTLMISRTPEVTCVVVDVSHEDPEVKFNWYVDGVEVHNAKTKPREEQYNSTYRVVSVLTVLHQDWLNGKEYKCKVSNKALPAPIEKTISKAKGQPREPQVYTLPPSREEMTKNQVSLWCLVKGFYPSDIAVEWESNGQPENNYKTTPPVLDSDGSFFLYSKLTVDKSRWQQGNVFSCSVMHEALHNHYTQKSLSLSPG light: not shown EVQLVESGGGVVQPGGSLRLSCAASGDTFSRGSWGWFRQAPGKEREAVALISSDGWTFYADSVKGRFTISQDNSKNTLYLQMNSLRAEDTAVYYCAASVLVLRTLNPKAWHHWGQGTMVTVSSGGGDKTHTCPPCPAPEAAGAPSVFLFPPKPKDTLMISRTPEVTCVVVDVSHEDPEVKFNWYVDGVEVHNAKTKPREEQYNSTYRVVSVLTVLHQDWLNGKEYKCKVSNKALPAPIEKTISKAKGQPREPQVYTLPPSREEMTKNQVSLSCAVKGFYPSDIAVEWESNGQPENNYKTTPPVLDSDGSFFLVSKLTVDKSRWQQGNVFSCSVMHEALHNHYTQKSLSLSPG | 7.3 | 16.6 | 12.6 | ~1000 | – | binds | ~50 | ~600 | ~200 | ~200 | ~200 | 219 | 9.74e-05 | 445000 | 25600 | 0.000866 | 33900 | – |
| antiFITCx CD3 negative control (bispecific antibody, human IgG1, kappa, Negative control with the same anti-CD3 arm and an anti-FITC scFv in place of the MUC17 VHH) heavy: EVQLVESGGGVVQPGRSLRLSCAASGFTFTDYYMSWVRQAPGKGLEWVAMSRNKAKGHTIEYSSSVKGRFTISRDNSKNTLYLQMNSLRAEDTAVYYCARDTYESYDGYFDVWGQGTTVTVSSASTKGPSVFPLAPSSKSTSGGTAALGCLVKDYFPEPVTVSWNSGALTSGVHTFPAVLQSSGLYSLSSVVTVPSSSLGTQTYICNVNHKPSNTKVDKKVEPKSCDKTHTCPPCPAPEAAGAPSVFLFPPKPKDTLMISRTPEVTCVVVDVSHEDPEVKFNWYVDGVEVHNAKTKPREEQYNSTYRVVSVLTVLHQDWLNGKEYKCKVSNKALPAPIEKTISKAKGQPREPQVYTLPPSREEMTKNQVSLWCLVKGFYPSDIAVEWESNGQPENNYKTTPPVLDSDGSFFLYSKLTVDKSRWQQGNVFSCSVMHEALHNHYTQKSLSLSPG light: not shown EVKLDETGGGLVQPGRPMKLSCVASGFTFSDYWMNWVRQSPEKGLEWVAQIRNKPYNYETYYSDSVKGRFTISRDDSKSSVYLQMNNLRVEDMGIYYCTGSYYGMDYWGQGTSVTVSSGGGGSGGGGSGGGGSDVVMTQTPLSLPVSLGDQASISCRSSQSLVHSNGNTYLRWYLQKPGQSPKVLIYKVSNRFSGVPDRFSGSGSGTDFTLKISRVEAEDLGVYFCSQSTHVPWTFGGGTKLEIKGGGDKTHTCPPCPAPEAAGAPSVFLFPPKPKDTLMISRTPEVTCVVVDVSHEDPEVKFNWYVDGVEVHNAKTKPREEQYNSTYRVVSVLTVLHQDWLNGKEYKCKVSNKALPAPIEKTISKAKGQPREPQVYTLPPSREEMTKNQVSLSCAVKGFYPSDIAVEWESNGQPENNYKTTPPVLDSDGSFFLVSKLTVDKSRWQQGNVFSCSVMHEALHNHYTQKSLSLSPG | – | – | – | – | – | binds | – | – | – | – | – | – | – | – | – | – | – | no binding |
